The source of these data is PMC10786891, “Massively parallel profiling of RNA-targeting CRISPR-Cas13d”.

Usually Kd stands for the constant that tells how readily two partners part at equilibrium. High values mean weaker binding, low ones tighter binding.

First the molecules themselves.
B1: target 2 MT 5'PFS ACG 3'PFS AAU (mixed)
RNA 1: CACCCGUGCAAAAUUGCAGGGGUCUAAAACCUUCUCCAAAUUGUUUCAUCCU
RNA 2: GGGAAUGGAUCCACAUCUACGAAUUCACGAGGAUGAAACAAUUUGGAGAAGAAUAGAUCGGAAGAGCACACGU
B2: target 2 MT 5'PFS CAC 3'PFS CGC (mixed)
RNA 1: B1 RNA 1
RNA 2: B1 RNA 2 with A27C, C28A, G29C, A52C, A53G, U54C
B3: target 2 MT 5'PFS ACC 3'PFS AAU (mixed)
RNA 1: B1 RNA 1
RNA 2: B1 RNA 2 with G29C
B4: target 2 MT 5'PFS GGA 3'PFS AUA (mixed)
RNA 1: B1 RNA 1
RNA 2: B1 RNA 2 with A27G, C28G, G29A, A53U, U54A
B5: target 2 MT 5'PFS UAU 3'PFS CCG (mixed)
RNA 1: B1 RNA 1
RNA 2: B1 RNA 2 with A27U, C28A, G29U, A52C, A53C, U54G
B6: target 2 MT 5'PFS GAU 3'PFS UGA (mixed)
RNA 1: B1 RNA 1
RNA 2: B1 RNA 2 with A27G, C28A, G29U, A52U, A53G, U54A
B7: target 2 MT 5'PFS CAC 3'PFS AGC (mixed)
RNA 1: B1 RNA 1
RNA 2: B1 RNA 2 with A27C, C28A, G29C, A53G, U54C
B8: target 2 MT 5'PFS UAU 3'PFS AUC (mixed)
RNA 1: B1 RNA 1
RNA 2: B1 RNA 2 with A27U, C28A, G29U, A53U, U54C
B9: target 2 MT 5'PFS GUU 3'PFS CUA (mixed)
RNA 1: B1 RNA 1
RNA 2: B1 RNA 2 with A27G, C28U, G29U, A52C, A53U, U54A
B10: target 2 MT 5'PFS CAC 3'PFS CGA (mixed)
RNA 1: B1 RNA 1
RNA 2: B1 RNA 2 with A27C, C28A, G29C, A52C, A53G, U54A
B11: target 2 MT 5'PFS ACC 3'PFS AAC (mixed)
RNA 1: B1 RNA 1
RNA 2: B1 RNA 2 with G29C, U54C
B12: target 2 MT 5'PFS GUU 3'PFS CUG (mixed)
RNA 1: B1 RNA 1
RNA 2: B1 RNA 2 with A27G, C28U, G29U, A52C, A53U, U54G
B13: target 2 MT 5'PFS GGA 3'PFS AUG (mixed)
RNA 1: B1 RNA 1
RNA 2: B1 RNA 2 with A27G, C28G, G29A, A53U, U54G
B14: target 2 MT 5'PFS UCG 3'PFS AUC (mixed)
RNA 1: B1 RNA 1
RNA 2: B1 RNA 2 with A27U, A53U, U54C
B15: target 2 MT 5'PFS GUU 3'PFS CUC (mixed)
RNA 1: B1 RNA 1
RNA 2: B1 RNA 2 with A27G, C28U, G29U, A52C, A53U, U54C
B16: target 2 MT 5'PFS GAC 3'PFS UCG (mixed)
RNA 1: B1 RNA 1
RNA 2: B1 RNA 2 with A27G, C28A, G29C, A52U, A53C, U54G
B17: target 2 MT 5'PFS GAU 3'PFS UGC (mixed)
RNA 1: B1 RNA 1
RNA 2: B1 RNA 2 with A27G, C28A, G29U, A52U, A53G, U54C
B18: target 2 MT 5'PFS UUA 3'PFS UCG (mixed)
RNA 1: B1 RNA 1
RNA 2: B1 RNA 2 with A27U, C28U, G29A, A52U, A53C, U54G
B19: target 2 MT 5'PFS GAC 3'PFS UCU (mixed)
RNA 1: B1 RNA 1
RNA 2: B1 RNA 2 with A27G, C28A, G29C, A52U, A53C
B20: target 2 MT 5'PFS UCG 3'PFS AUA (mixed)
RNA 1: B1 RNA 1
RNA 2: B1 RNA 2 with A27U, A53U, U54A
B21: target 2 MT 5'PFS GGA 3'PFS AUU (mixed)
RNA 1: B1 RNA 1
RNA 2: B1 RNA 2 with A27G, C28G, G29A, A53U
B22: target 2 MT 5'PFS UUA 3'PFS UCA (mixed)
RNA 1: B1 RNA 1
RNA 2: B1 RNA 2 with A27U, C28U, G29A, A52U, A53C, U54A
B23: target 2 MT 5'PFS UUA 3'PFS UCU (mixed)
RNA 1: B1 RNA 1
RNA 2: B1 RNA 2 with A27U, C28U, G29A, A52U, A53C
B24: target 2 MT 5'PFS GCU 3'PFS CGG (mixed)
RNA 1: B1 RNA 1
RNA 2: B1 RNA 2 with A27G, G29U, A52C, A53G, U54G
B25: target 2 MT 5'PFS GCA 3'PFS UCC (mixed)
RNA 1: B1 RNA 1
RNA 2: B1 RNA 2 with A27G, G29A, A52U, A53C, U54C
B26: target 2 MT 5'PFS ACC 3'PFS AAA (mixed)
RNA 1: B1 RNA 1
RNA 2: B1 RNA 2 with G29C, U54A
B27: target 2 MT 5'PFS GGA 3'PFS AUC (mixed)
RNA 1: B1 RNA 1
RNA 2: B1 RNA 2 with A27G, C28G, G29A, A53U, U54C
B28: target 2 MT 5'PFS UAU 3'PFS CCA (mixed)
RNA 1: B1 RNA 1
RNA 2: B1 RNA 2 with A27U, C28A, G29U, A52C, A53C, U54A
B29: target 2 MT 5'PFS GAU 3'PFS UGU (mixed)
RNA 1: B1 RNA 1
RNA 2: B1 RNA 2 with A27G, C28A, G29U, A52U, A53G
B30: target 2 MT 5'PFS CAC 3'PFS AAA (mixed)
RNA 1: B1 RNA 1
RNA 2: B1 RNA 2 with A27C, C28A, G29C, U54A
B31: target 2 MT 5'PFS GCU 3'PFS CGA (mixed)
RNA 1: B1 RNA 1
RNA 2: B1 RNA 2 with A27G, G29U, A52C, A53G, U54A
B32: target 1 C7A,A18G (mixed)
RNA 1: CACCCGUGCAAAAAUGCAGGGGUCUAAAACUGAGCGGAUAACCUCUCUAUGG
RNA 2: GGGAAUGGAUCCACAUCUACGAAUUCGUACCAUGGAGAGGUUAUACGCUCACCGAGAUCGGAAGAGCACACGU
B33: target 1 G15U,A16G (mixed)
RNA 1: B32 RNA 1
RNA 2: B32 RNA 2 with G34A, A36G, G37U, A45C
B34: target 1 G5A,C7U (mixed)
RNA 1: B32 RNA 1
RNA 2: B32 RNA 2 with G34A, A45U, G47A
B35: target 1 insG 3' of 18,insU 3' of 17 (mixed)
RNA 1: B32 RNA 1
RNA 2: GGGAAUGGAUCCACAUCUACGAAUUCGUACCAUAGGUAGAGGUUAUCCGCUCACCGAGAUCGGAAGAGCACACGU

Residue numbers refer to the chain shown, from its start. Numbers in names are those of the source.

For this series, the target named is T1, EsCas13d, nuclease-dead (Eubacterium siraeum, UniProt B0MS50, R295A;H300A;R849A;H854A).
T1 sequence: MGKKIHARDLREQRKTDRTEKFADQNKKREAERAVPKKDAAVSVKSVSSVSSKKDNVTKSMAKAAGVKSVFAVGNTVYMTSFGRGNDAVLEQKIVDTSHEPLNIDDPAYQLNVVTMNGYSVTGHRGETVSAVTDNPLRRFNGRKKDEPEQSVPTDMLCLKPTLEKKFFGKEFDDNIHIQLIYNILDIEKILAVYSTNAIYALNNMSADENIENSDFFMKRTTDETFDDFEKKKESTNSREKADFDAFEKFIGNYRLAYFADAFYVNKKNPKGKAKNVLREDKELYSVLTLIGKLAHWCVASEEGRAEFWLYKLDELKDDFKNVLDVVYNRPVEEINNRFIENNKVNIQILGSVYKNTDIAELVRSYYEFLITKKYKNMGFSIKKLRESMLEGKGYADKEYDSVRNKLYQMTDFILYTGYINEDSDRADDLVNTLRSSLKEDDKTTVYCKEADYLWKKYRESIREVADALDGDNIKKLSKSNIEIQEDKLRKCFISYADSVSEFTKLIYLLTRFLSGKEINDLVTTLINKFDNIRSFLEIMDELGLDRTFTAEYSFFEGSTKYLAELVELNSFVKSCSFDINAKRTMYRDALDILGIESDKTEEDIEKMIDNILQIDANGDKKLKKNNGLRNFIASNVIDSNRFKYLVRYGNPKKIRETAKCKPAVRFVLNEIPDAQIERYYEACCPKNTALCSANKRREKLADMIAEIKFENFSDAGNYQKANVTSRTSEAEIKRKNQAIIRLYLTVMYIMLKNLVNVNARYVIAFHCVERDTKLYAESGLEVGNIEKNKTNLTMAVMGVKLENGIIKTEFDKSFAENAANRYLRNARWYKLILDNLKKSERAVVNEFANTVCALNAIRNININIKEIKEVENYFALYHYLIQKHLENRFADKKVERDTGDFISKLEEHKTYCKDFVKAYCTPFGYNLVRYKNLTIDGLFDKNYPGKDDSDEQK
Kind of series: crRNA (strand 1, pre-loaded); Mg2+; 40 mM Tris-HCl pH 7.5, 150 mM NaCl, 6 mM MgCl2, 1 mM DTT, 0.1% Tween-20, 0.2 mg/ml BSA; 25 C; 10 min per concentration, then washed. To be noted: tags: His6-TwinStrep-SUMO cleaved; N-terminal SNAP kept (SNAP-Surface 488); label: 3' end held by stalled T7 RNA polymerase.
Regarding B1, the affinity, expressed as Kd, was 5.4 ± 1.3 nM.

In turn, B2 displayed a Kd of 1.69 ± 0.2 nM.

With B3, the Kd came out at 8 ± 1.2 nM.

B4 yielded a Kd of 10.2 ± 1.5 nM.

As to B5, the affinity, expressed as Kd, was 55 ± 8 nM.

With B6, the Kd stood at 19 ± 5 nM.

Molecule B7 had a Kd of 1.87 ± 0.32 nM.

Take B8: binding was characterised by a dissociation constant (Kd) of 53 ± 9 nM.

Turning to B9, binding was put at a Kd of 14 ± 1.9 nM.

On to B10, for which the Kd was found to be 3.01 ± 0.34 nM.

Regarding B11, binding was put at a Kd of 10.5 ± 3.1 nM.

B12 displayed a Kd of 21.3 ± 2.8 nM.

With B13, the affinity, expressed as Kd, was 9.8 ± 0.9 nM.

B14 registered a Kd of roughly 70 nM.

The molecule B15 showed a Kd of 20.4 ± 2.3 nM.

B16 displayed a Kd of 15.2 ± 2.7 nM.

In the case of B17, the Kd came to 14.9 ± 1.9 nM.

In the case of B18, the Kd amounted to 25 ± 4 nM.

For the molecule B19, the Kd turned out to be 27 ± 6 nM.

As to B20, the Kd was determined as 29 ± 9 nM.

B21 displayed a Kd of 9 ± 1 nM.

Molecule B22 came in with a Kd of 20 ± 4 nM.

On to B23, for which the Kd stood at 28 ± 4 nM.

On to B24, for which the Kd turned out to be 19 ± 4 nM.

Turning to B25, the affinity, expressed as Kd, was 32 ± 4 nM.

Regarding B26, the Kd is 9.3 ± 2.7 nM.

In the case of B27, the Kd turned out to be 12.4 ± 1.9 nM.

On to B28, for which binding was characterised by a dissociation constant (Kd) of 37 ± 15 nM.

Turning to B29, the Kd is 21.2 ± 2.2 nM.

For the molecule B30, binding was characterised by a dissociation constant (Kd) of 1.71 ± 0.3 nM.

B31 had a Kd of 23 ± 5 nM.

For the molecule B32, the Kd worked out at 50 ± 8 nM.

B33 yielded a Kd of 27.1 ± 2.2 nM.

B34: the Kd was 7.7 ± 0.5 nM.

Molecule B35 displayed a Kd of 30.3 ± 2.6 nM.
